According to patent US20250249076A1, “Composition Comprising a Combination of Lactoferrin and a Sulphated Polysaccharide” (Reckitt Benckiser Health Limited, priority 2022, published 2025):

Legend:
[1] = test system: Lactobacilli at the level of the vaginal flora; settings: vaginal use; cited from earlier work
[2] = test system: Lactobacillus jensenii 25258; experiment: 96-well chequerboard growth assay (optical density over 48 hours), prebiotic effect; format: cell-based; settings: bacteria exposed to the ingredient alone; FIG. 5
Experimental: A stock solution of 8 mg/mL bovine lactoferrin, was prepared by adding the appropriate amount of sterile MilliQ water to the weighted compound, followed by vortexing and filter-sterilizing. A stock solution of 2 mg/ml of each of the carrageenans (κ-, I-, λ-) was prepared by adding the appropriate amount of sterile MilliQ water to the weighted compound, incubated at 37° C. for 30 minutes, followed by vortexing until clear, and filter-sterilizing. […] The stock solution of lactoferrin was serially diluted in a broth-based media (appropriate for growth of the particular microorganism to be assayed) along the rows of the microtiter plate. The stock solution of carrageenan (κ-, I-, or λ-) was serially diluted in a broth-based media (appropriate for growth of the particular microorganism) along the columns of the microtiter plate. The final volume of media in each well was 0.1 mL. Each well containing lactoferrin and/or carrageenan (κ-, I-, or λ-) was inoculated with log-phase bacteria/yeast at a concentration of 5×10^5 colony forming units (CFU)/well. […] After addition of the relevant microorganism, plates were sealed with optical quality film, and incubated within the plate reader at the appropriate growth temperature for the microorganism being assayed. The optical density (OD) was recorded every 15 minutes for a period of 48 hours to evaluate the microorganism growth and biomass formation.

B1: lactoferrin: iron-binding cationic glycoprotein belonging to the family of transferrins; bovine lactoferrin used in the Examples (protein, UniProt P24627 20-708, looked up)
Lactotransferrin: APRKNVRWCTISQPEWFKCRRWQWRMKKLGAPSITCVRRAFALECIRAIAEKKADAVTLDGGMVFEAGRDPYKLRPVAAEIYGTKESPQTHYYAVAVVKKGSNFQLDQLQGRKSCHTGLGRSAGWIIPMGILRPYLSWTESLEPLQGAVAKFFSASCVPCIDRQAYPNLCQLCKGEGENQCACSSREPYFGYSGAFKCLQDGAGDVAFVKETTVFENLPEKADRDQYELLCLNNSRAPVDAFKECHLAQVPSHAVVARSVDGKEDLIWKLLSKAQEKFGKNKSRSFQLFGSPPGQRDLLFKDSALGFLRIPSKVDSALYLGSRYLTTLKNLRETAEEVKARYTRVVWCAVGPEEQKKCQQWSQQSGQNVTCATASTTDDCIVLVLKGEADALNLDGGYIYTAGKCGLVPVLAENRKSSKHSSLDCVLRPTEGYLAVAVVKKANEGLTWNSLKDKKSCHTAVDRTAGWNIPMGLIVNQTGSCAFDEFFSQSCAPGADPKSRLCALCAGDDQGLDKCVPNSKEKYYGYTGAFRCLAEDVGDVAFVKNDTVWENTNGESTADWAKNLNREDFRLLCLDGTRKPVTEAQSCHLAVAPNHAVVSRSDRAAHVKQVLLHQQALFGKNGKNCPDKFCLFKSETKNLLFNDNTECLAKLGGRPTYEEYLGTEYVTAIANLKKCSTSPLLEACAFLTR
presence of Lactobacilli at the level of the vaginal flora [1]: able to increase the presence of Lactobacilli
viability / phase of the bacterial growth cycle of L. jensenii 25258 [2]: enters the death phase
